Experiments:
[1] = target: T1, BoERF1L-His (His-BoERF1L; Methods: His-BoERF1) (Brassica oleracea, UniProt A0A0D3ABA8 1-210); assay: EMSA; EMSA: 10 µL with 2 µg protein, 20 fmol biotin-labeled DNA, 2 µL 5x EMSA/Gel-Shift Binding Buffer (GS005, Beyotime); 6% polyacrylamide gel; salt, pH and temperature not stated; settings: protein: recombinant, tags: His (Methods: C-terminal; pET-SUMO vector)
[2] = target: T1, BoERF1L-His (His-BoERF1L; Methods: …); assay: EMSA; unlabeled WTpro at 20x, 30x, 40x competes dose-dependently; EMSA: 10 µL with 2 µg protein, 20 fmol biotin-labeled DNA, 2 µL 5x EMSA/Gel-Shift Binding Buffer (GS005, Beyotime); 6% polyacrylamide gel; salt, pH and temperature not stated; settings: protein: recombinant; tags: His (Methods: C-terminal; pET-SUMO vector); label: biotin

T1 sequence (A0A0D3ABA8 entry or part of it): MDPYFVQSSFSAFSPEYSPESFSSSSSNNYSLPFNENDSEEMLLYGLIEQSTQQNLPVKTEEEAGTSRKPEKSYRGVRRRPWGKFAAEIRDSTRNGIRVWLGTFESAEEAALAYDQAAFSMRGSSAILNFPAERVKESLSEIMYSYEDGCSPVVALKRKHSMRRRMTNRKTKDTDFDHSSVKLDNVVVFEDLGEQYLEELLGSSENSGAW

Row | Binder | binding result [1] | also measured
1 | W7 (dsDNA) DNA 1: CAGAAATTGACGGAAC DNA 2: GTTCCGTCAATTTCTG | no binding | –
2 | W1 (dsDNA) DNA 1: GTGCAGGTAGCTCATG DNA 2: CATGAGCTACCTGCAC | no binding | –
3 | MTpro (dsDNA) DNA 1: GATACATGTAAGTGCAGGTAGCTCATGCAGAAATTGACGGAACACAGAGTTACTCTGATTCTATA DNA 2: TATAGAATCAGAGTAACTCTGTGTTCCGTCAATTTCTGCATGAGCTACCTGCACTTACATGTATC | – | binding result ([1]; label: biotin): no binding
4 | WTpro (dsDNA) DNA 1: GATACATGTAAGTGCAGGTAGCTCATGACAGAAATTGACGGAACACAGAGTTACTCTGATTCTATA DNA 2: TATAGAATCAGAGTAACTCTGTGTTCCGTCAATTTCTGTCATGAGCTACCTGCACTTACATGTATC | – | binding result [2]: binds

Reference: PMC10556095, “A natural mutation in the promoter of Ms-cd1 causes dominant male sterility in Brassica oleracea”
